Assay results from patent US20220372155A1 (LYVGEN BIOPHARMA, published 2022).

Assays:
[1] = biological target: T1, human CD40 expressed on CHO cells (human, UniProt P25942 21-277); assay: FACS, CHO cells
T1 construct: whole, on cells; also used for the reporter cells over-expressing human CD40; also called cellular CD40; CHO-CD40 cells

[2] = biological target: T2, Human CD40 ECD protein (mouse IgG2a Fc tag) (human, UniProt P25942 21-193); assay: bridging ELISA, coated B7H3-His, soluble CD40-msFc
T2 construct: extracellular domain; also called Human CD40-msFc; human recombinant CD40; not shown: mouse IgG2a Fc tag
T2 sequence (P25942 21-193): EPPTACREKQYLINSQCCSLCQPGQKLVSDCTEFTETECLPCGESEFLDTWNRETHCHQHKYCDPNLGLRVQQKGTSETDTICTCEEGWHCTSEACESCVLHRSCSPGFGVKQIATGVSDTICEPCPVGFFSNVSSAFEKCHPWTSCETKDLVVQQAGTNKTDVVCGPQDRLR
Method: Anti-B7H3/CD40 bi-specific antibodies were analyzed by ELISA for their simultaneous binding to recombinant human B7H3 and human CD40. Briefly, Human B7H3 CD protein (His-tag) was diluted and coated onto an ELISA plate with a volume of […] by incubation at 4° C. overnight. The next day, the plate was blocked with PBST-BSA buffer, then serially diluted samples of anti-B7H3/CD40 bi-specific antibodies were pipetted into appropriate wells at 50 μL/well, and the plate was incubated for 1 h followed by washing. Human CD40-msFc antibody was added into the plate at 50 μL/well. After 1-hour incubation at room temperature, […] anti-Mouse IgG (H+L) antibody was added into the plate at 100 μL/well. The plate was incubated for 1 hour at room temperature followed by washing. TMB substrate solution was added at 100 p L/well and the color development was stopped by adding 100 uUwell Stop Solution (2N H2SO4). Absorbance at 450 nm and 620 nm was read by Tecan F200 Pro plate reader. GraphPad 7.0, “[Agonist] vs. response—Variable slope (four parameters)” was used to plot the binding data and calculate binding EC50 values.

[3] = biological target: T3, human PD-1 expressed on CHO cells (human, UniProt Q15116 25-288); assay: FACS, CHO cells
T3 construct: whole, on cells; also used for human PD-1 on Jurkat reporter cells; also called Jurkat/NFkB-Luci/PD-1 cells
T3 sequence (Q15116 25-288): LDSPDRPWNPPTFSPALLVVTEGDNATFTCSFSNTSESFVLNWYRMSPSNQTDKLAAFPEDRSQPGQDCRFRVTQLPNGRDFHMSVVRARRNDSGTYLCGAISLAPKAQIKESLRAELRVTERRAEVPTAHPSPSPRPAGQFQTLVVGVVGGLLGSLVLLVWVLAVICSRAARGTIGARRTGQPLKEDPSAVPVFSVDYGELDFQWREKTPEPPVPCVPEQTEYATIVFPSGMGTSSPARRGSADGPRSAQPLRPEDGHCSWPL

[4] = biological target: T4, Ly090 (human CD40 ECD protein with His tag) (human, UniProt P25942 21-193); assay: bridging ELISA, coated CD40 ECD-His, soluble PD-1 ECD-mFc
T4 construct: extracellular domain; also called human CD40 ECD protein (His tag); recombinant human CD40; not shown: His tag
T4 sequence (P25942 21-193): as the sequence (P25942 21-193) above
Method: (§1) Briefly, human CD40 ECD protein (His tag) was diluted and coated onto an ELISA plate with a volume of […] by incubation at 4° C. overnight. […] After 1-hour incubation at room temperature, HRP-conjugated anti-Mouse IgG (H+L) antibody was added into the plate at 100 μL/well. The plate was incubated for 1 hour at room temperature followed by washing. TMB substrate solution was added at 100 μL/well and the color development was stopped by adding 100 uL/well Stop Solution (2N H2SO4). Absorbance at 450 nm and 620 nm was read by Tecan F200 Pro plate reader. GraphPad 7.0, “[Agonist] vs. response—Variable slope (four parameters)” was used to plot the binding data and calculate binding EC50 values.

[5] = biological target: T5, Human PD-1-ECD protein (mouse IgG2a Fc tag) (human, UniProt Q15116 25-170); assay: as above
T5 construct: extracellular domain; also called soluble human recombinant PD-1; not shown: mouse IgG2a Fc tag
T5 sequence (Q15116 25-170): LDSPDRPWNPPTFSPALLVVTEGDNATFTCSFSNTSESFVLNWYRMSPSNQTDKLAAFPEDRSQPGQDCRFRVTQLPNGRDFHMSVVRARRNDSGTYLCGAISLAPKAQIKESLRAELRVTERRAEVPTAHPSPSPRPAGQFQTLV
Method: as §1

Measured: binding result

T1 sequence (P25942 21-277): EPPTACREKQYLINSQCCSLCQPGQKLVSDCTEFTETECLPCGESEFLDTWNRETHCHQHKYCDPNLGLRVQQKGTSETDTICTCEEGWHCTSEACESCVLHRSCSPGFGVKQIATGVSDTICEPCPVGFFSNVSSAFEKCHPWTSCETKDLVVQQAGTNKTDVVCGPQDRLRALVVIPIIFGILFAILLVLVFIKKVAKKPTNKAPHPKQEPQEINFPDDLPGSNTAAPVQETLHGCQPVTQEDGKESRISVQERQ

B1: Ly616 (bispecific antibody, human IgG1, kappa)
heavy: QVQLQQPGAELVKPGASVKLSCKASGYTFTSYWMHWVKQRPGQGLEWIGMIHPNSGGTNYNEKFKGKGTLTVDKSSSTAYMQLSSLTSDDSAVYYCVTSQATWFAYWGQGTLVTVSAASTKGPSVFPLAPSSKSTSGGTAALGCLVKDYFPEPVTVSWNSGALTSGVHTFPAVLQSSGLYSLSSVVTVPSSSLGTQTYICNVNHKPSNTKVDKKVEPKSCDKTHTCPPCPAPELLGPSVFLFPPKPKDTLMISRTPEVTCVVVDVSHEDPEVKFNWYVDGVEVHNAKTKPREEQYNSTYRVVSVLTVLHQDWLNGKEYKCKVSNKALPAPIEKTISKAKGQPREPQVYTLPPSREEMTKNQVSLTCLVKGFYPSDIAVEWESNGQPENNYKTTPPVLDSDGSFFLYSKLTVDKSRWQQGNVFSCSVMHEALHNHYTQKSLSLSPGGGGGSGGGGSGGGGSGGGGSDIQMTQSPSSLSASVGDRVTITCLASEDISNDLAWYQQKPGKAPKLLIYFVDRLLDGVPSRFSGSGSGTDFTLTISSLQPEDFATYYCQQSYKYPPTFGQGTKLEIKGGGGSGGGGSGGGGSGGGGSEVQLVESGGGLVQPGGSLRLSCAASGFTFTNYGLHWVRQAPGKGLEWVSSISPSGGVTYYRDSVKGRFTISRDNSKNTLYLQMNSLRAEDTAVYYCAKPFLGWGGANWIAHWGQGTLVTVSS
light: ENVLTQSPAIMSVSPGEKVTMTCRASSSVSSSYLHWYQQKSGASPKFWIYSTSNLASGVPARFSGSGSGTSYSLTISSVEAEDAATYYCQHYSGYPLTFGAGTKLELRRTVAAPSVFIFPPSDEQLKSGTASVVCLLNNFYPREAKVQWKVDNALQSGNSQESVTEQDSKDSTYSLSSTLTLSKADYEKHKVYACEVTHQGLSSPVTKSFNRGEC
notes: Ly387 HC (IgG1 mutated Fc)-TM559 scFv VL-VH + Ly387 LC
binds: [1] | [2]

B2: Ly617 (bispecific antibody, human IgG1, kappa)
heavy: QVQLQQPGAELVKPGASVKLSCKASGYTFTSYWMHWVKQRPGQGLEWIGMIHPNSGGTNYNEKFKGKGTLTVDKSSSTAYMQLSSLTSDDSAVYYCVTSQATWFAYWGQGTLVTVSAASTKGPSVFPLAPSSKSTSGGTAALGCLVKDYFPEPVTVSWNSGALTSGVHTFPAVLQSSGLYSLSSVVTVPSSSLGTQTYICNVNHKPSNTKVDKKVEPKSCDKTHTCPPCPAPELLGPSVFLFPPKPKDTLMISRTPEVTCVVVDVSHEDPEVKFNWYVDGVEVHNAKTKPREEQYNSTYRVVSVLTVLHQDWLNGKEYKCKVSNKALPAPIEKTISKAKGQPREPQVYTLPPSREEMTKNQVSLTCLVKGFYPSDIAVEWESNGQPENNYKTTPPVLDSDGSFFLYSKLTVDKSRWQQGNVFSCSVMHEALHNHYTQKSLSLSPGGGGGSGGGGSGGGGSGGGGSEVQLVESGGGLVQPGGSLRLSCAASGFTFTNYGLHWVRQAPGKGLEWVSSISPSGGVTYYRDSVKGRFTISRDNSKNTLYLQMNSLRAEDTAVYYCAKPFLGWGGANWIAHWGQGTLVTVSSGGGGSGGGGSGGGGSGGGGSDIQMTQSPSSLSASVGDRVTITCLASEDISNDLAWYQQKPGKAPKLLIYFVDRLLDGVPSRFSGSGSGTDFTLTISSLQPEDFATYYCQQSYKYPPTFGQGTKLEIK
light: ENVLTQSPAIMSVSPGEKVTMTCRASSSVSSSYLHWYQQKSGASPKFWIYSTSNLASGVPARFSGSGSGTSYSLTISSVEAEDAATYYCQHYSGYPLTFGAGTKLELRRTVAAPSVFIFPPSDEQLKSGTASVVCLLNNFYPREAKVQWKVDNALQSGNSQESVTEQDSKDSTYSLSSTLTLSKADYEKHKVYACEVTHQGLSSPVTKSFNRGEC
notes: Ly387 HC (IgG1 mutated Fc)-TM559 scFv VH-VL + Ly387 LC
binds: [1] | [2]

B3: Ly517 (bispecific antibody, human IgG1, kappa)
heavy: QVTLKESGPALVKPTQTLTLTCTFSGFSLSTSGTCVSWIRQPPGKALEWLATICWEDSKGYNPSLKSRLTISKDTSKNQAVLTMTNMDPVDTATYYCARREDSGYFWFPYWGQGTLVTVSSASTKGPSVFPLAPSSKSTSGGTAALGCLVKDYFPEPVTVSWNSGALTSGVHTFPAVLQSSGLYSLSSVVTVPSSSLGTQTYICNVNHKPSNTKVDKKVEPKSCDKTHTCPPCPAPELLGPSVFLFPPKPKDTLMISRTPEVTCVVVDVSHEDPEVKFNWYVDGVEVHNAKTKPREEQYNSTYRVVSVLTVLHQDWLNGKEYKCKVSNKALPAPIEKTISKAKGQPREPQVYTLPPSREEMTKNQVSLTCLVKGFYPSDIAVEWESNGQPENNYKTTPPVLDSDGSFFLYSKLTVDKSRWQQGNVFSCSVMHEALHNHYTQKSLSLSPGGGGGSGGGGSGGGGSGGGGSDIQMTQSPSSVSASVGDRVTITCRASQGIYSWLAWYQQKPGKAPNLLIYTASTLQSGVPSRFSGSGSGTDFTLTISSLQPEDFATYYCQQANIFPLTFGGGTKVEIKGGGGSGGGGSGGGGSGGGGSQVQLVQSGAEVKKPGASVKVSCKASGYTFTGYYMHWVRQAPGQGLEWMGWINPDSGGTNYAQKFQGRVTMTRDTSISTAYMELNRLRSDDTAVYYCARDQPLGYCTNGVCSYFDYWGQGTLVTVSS
light: NIQMTQSPSSLSASVGDRVTITCKAGQNVNNYLAWYQQKPGKAPKVLIFNANSLQTGVPSRFSGSGSGTDFTLTISSLQPEDFATYYCQQYNSWPTFGGGTKVEIKRTVAAPSVFIFPPSDEQLKSGTASVVCLLNNFYPREAKVQWKVDNALQSGNSQESVTEQDSKDSTYSLSSTLTLSKADYEKHKVYACEVTHQGLSSPVTKSFNRGEC
notes: Ly516 HC (IgG1 mutated Fc)-Ly253 scFv VL-VH + Ly516 LC
binds: [1] | [3] | [4] | [5]

B4: Ly518 (bispecific antibody, human IgG1, kappa)
heavy: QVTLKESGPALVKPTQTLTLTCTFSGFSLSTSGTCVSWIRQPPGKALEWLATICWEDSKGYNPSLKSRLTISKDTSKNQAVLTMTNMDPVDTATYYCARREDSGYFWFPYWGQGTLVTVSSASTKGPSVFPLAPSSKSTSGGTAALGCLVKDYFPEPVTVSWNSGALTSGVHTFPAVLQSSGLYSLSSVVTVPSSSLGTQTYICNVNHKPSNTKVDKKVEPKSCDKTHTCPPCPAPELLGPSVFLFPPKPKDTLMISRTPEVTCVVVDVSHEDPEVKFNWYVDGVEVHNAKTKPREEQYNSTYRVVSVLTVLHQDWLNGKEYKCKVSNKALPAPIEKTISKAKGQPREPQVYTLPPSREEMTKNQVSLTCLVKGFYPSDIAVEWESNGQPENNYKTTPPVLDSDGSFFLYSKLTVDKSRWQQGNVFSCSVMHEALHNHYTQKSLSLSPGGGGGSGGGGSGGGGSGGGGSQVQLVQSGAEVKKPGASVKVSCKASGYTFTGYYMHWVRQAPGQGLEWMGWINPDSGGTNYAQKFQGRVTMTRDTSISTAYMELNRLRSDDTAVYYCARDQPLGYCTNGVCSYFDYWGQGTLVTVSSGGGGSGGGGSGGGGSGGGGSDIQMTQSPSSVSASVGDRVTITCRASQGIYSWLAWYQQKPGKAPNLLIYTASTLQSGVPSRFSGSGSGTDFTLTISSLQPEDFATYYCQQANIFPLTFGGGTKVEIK
light: NIQMTQSPSSLSASVGDRVTITCKAGQNVNNYLAWYQQKPGKAPKVLIFNANSLQTGVPSRFSGSGSGTDFTLTISSLQPEDFATYYCQQYNSWPTFGGGTKVEIKRTVAAPSVFIFPPSDEQLKSGTASVVCLLNNFYPREAKVQWKVDNALQSGNSQESVTEQDSKDSTYSLSSTLTLSKADYEKHKVYACEVTHQGLSSPVTKSFNRGEC
notes: Ly516 HC (IgG1 mutated Fc)-Ly253 scFv VH-VL + Ly516 LC
binds: [1] | [3] | [4] | [5]

B5: Ly519 (bispecific antibody, human IgG1, kappa)
heavy: QVTLKESGPALVKPTQTLTLTCTFSGFSLSTSGTCVSWIRQPPGKALEWLATICWEDSKGYNPSLKSRLTISKDTSKNQAVLTMTNMDPVDTATYYCARREDSGYFWFPYWGQGTLVTVSSASTKGPSVFPLAPSSKSTSGGTAALGCLVKDYFPEPVTVSWNSGALTSGVHTFPAVLQSSGLYSLSSVVTVPSSSLGTQTYICNVNHKPSNTKVDKKVEPKSCDKTHTCPPCPAPELLGPSVFLFPPKPKDTLMISRTPEVTCVVVDVSHEDPEVKFNWYVDGVEVHNAKTKPREEQYNSTYRVVSVLTVLHQDWLNGKEYKCKVSNKALPAPIEKTISKAKGQPREPQVYTLPPSREEMTKNQVSLTCLVKGFYPSDIAVEWESNGQPENNYKTTPPVLDSDGSFFLYSKLTVDKSRWQQGNVFSCSVMHEALHNHYTQKSLSLSPGK
light: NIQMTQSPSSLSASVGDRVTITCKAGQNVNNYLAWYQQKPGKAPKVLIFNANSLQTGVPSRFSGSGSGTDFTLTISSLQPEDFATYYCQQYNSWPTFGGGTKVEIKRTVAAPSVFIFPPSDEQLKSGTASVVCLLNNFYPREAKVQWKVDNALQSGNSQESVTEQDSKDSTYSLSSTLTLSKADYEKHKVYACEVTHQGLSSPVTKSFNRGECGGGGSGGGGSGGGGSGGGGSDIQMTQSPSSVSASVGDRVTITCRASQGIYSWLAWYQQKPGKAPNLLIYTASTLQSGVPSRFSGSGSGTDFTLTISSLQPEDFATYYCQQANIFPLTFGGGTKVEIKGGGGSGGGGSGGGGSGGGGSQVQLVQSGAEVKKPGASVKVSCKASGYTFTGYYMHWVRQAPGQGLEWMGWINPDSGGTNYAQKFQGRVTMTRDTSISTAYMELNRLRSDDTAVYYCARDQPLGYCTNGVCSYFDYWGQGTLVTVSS
notes: Ly516 HC (IgG1 mutated Fc) + Ly516 LC-Ly253 scFv VL-VH
binds: [1] | [3] | [4] | [5]

B6: Ly520 (bispecific antibody, human IgG1, kappa)
heavy: QVTLKESGPALVKPTQTLTLTCTFSGFSLSTSGTCVSWIRQPPGKALEWLATICWEDSKGYNPSLKSRLTISKDTSKNQAVLTMTNMDPVDTATYYCARREDSGYFWFPYWGQGTLVTVSSASTKGPSVFPLAPSSKSTSGGTAALGCLVKDYFPEPVTVSWNSGALTSGVHTFPAVLQSSGLYSLSSVVTVPSSSLGTQTYICNVNHKPSNTKVDKKVEPKSCDKTHTCPPCPAPELLGPSVFLFPPKPKDTLMISRTPEVTCVVVDVSHEDPEVKFNWYVDGVEVHNAKTKPREEQYNSTYRVVSVLTVLHQDWLNGKEYKCKVSNKALPAPIEKTISKAKGQPREPQVYTLPPSREEMTKNQVSLTCLVKGFYPSDIAVEWESNGQPENNYKTTPPVLDSDGSFFLYSKLTVDKSRWQQGNVFSCSVMHEALHNHYTQKSLSLSPGK
light: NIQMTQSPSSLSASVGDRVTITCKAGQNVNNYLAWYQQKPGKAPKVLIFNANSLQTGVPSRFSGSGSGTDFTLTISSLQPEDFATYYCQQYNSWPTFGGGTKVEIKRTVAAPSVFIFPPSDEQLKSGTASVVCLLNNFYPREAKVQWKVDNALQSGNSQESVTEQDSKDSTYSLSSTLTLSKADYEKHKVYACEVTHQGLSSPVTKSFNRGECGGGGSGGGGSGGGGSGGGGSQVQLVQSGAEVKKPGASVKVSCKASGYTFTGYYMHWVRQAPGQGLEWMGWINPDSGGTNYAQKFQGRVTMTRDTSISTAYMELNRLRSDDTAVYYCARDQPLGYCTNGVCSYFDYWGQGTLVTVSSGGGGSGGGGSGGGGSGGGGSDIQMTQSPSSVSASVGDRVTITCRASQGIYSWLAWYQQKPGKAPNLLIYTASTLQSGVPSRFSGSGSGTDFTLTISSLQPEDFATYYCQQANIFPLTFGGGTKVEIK
notes: Ly516 HC (IgG1 mutated Fc) + Ly516 LC-Ly253 scFv VH-VL
binds: [1] | [3] | [4] | [5]

B7: Ly606 (bispecific antibody, human IgG1, kappa)
heavy: QVTLKESGPALVKPTQTLTLTCTFSGFSLSTSGTCVSWIRQPPGKALEWLATICWEDSKGYNPSLKSRLTISKDTSKNQAVLTMTNMDPVDTATYYCARREDSGYFWFPYWGQGTLVTVSSASTKGPSVFPLAPSSKSTSGGTAALGCLVKDYFPEPVTVSWNSGALTSGVHTFPAVLQSSGLYSLSSVVTVPSSSLGTQTYICNVNHKPSNTKVDKKVEPKSCDKTHTCPPCPAPELLGPSVFLFPPKPKDTLMISRTPEVTCVVVDVSHEDPEVKFNWYVDGVEVHNAKTKPREEQYNSTYRVVSVLTVLHQDWLNGKEYKCKVSNKALPAPIEKTISKAKGQPREPQVYTLPPSREEMTKNQVSLTCLVKGFYPSDIAVEWESNGQPENNYKTTPPVLDSDGSFFLYSKLTVDKSRWQQGNVFSCSVMHEALHNHYTQKSLSLSPGGGGGSGGGGSGGGGSGGGGSDIQMTQSPSSLSASVGDRVTITCKASQNIYIYLNWYQQKPGKAPKLLIYNTNNLQTGVPSRFSGSGSGTDFTLTISSLQPEDFATYYCLQHSSRRTFGGGTKVEIKGGGGSGGGGSGGGGSGGGGSQVQLVESGGGLVQPGGSLKLSCATSGFNFNDYFMNWVRQASGKGLEWVGQIRNKNYNYATYYTESLEGRVTISRDDSKNTAYLQMNSLKTEDTAVYYCTSYYYDGFADYFDYWGQGTTVTVSS
light: NIQMTQSPSSLSASVGDRVTITCKAGQNVNNYLAWYQQKPGKAPKVLIFNANSLQTGVPSRFSGSGSGTDFTLTISSLQPEDFATYYCQQYNSWPTFGGGTKVEIKRTVAAPSVFIFPPSDEQLKSGTASVVCLLNNFYPREAKVQWKVDNALQSGNSQESVTEQDSKDSTYSLSSTLTLSKADYEKHKVYACEVTHQGLSSPVTKSFNRGEC
notes: Ly516 HC (IgG1 mutated Fc)-TM740 scFv VL-VH + Ly516 LC
binds: [1] | [3] | [4] | [5]
